Source: paper PMC1626108

Legend:
Hexokinase type I (HKI) = Hexokinase type I (HKI) (UniProt P17710)
[1] = molecular target: T1, Recombinant Cox11, purified (mouse) (UniProt Q6P8I6)
T1 sequence (Q6P8I6 whole entry, looked up): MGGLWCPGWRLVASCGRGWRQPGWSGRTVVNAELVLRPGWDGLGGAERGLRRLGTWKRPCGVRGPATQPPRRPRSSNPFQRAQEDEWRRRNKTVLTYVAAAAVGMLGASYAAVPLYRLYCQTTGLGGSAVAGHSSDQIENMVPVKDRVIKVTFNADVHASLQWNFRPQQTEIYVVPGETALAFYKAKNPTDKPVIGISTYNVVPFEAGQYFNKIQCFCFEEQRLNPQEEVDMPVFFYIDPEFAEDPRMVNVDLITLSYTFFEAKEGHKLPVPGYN

Sequence of UniProt P17710 (P17710 other isoform, or with tags, fused parts or gaps): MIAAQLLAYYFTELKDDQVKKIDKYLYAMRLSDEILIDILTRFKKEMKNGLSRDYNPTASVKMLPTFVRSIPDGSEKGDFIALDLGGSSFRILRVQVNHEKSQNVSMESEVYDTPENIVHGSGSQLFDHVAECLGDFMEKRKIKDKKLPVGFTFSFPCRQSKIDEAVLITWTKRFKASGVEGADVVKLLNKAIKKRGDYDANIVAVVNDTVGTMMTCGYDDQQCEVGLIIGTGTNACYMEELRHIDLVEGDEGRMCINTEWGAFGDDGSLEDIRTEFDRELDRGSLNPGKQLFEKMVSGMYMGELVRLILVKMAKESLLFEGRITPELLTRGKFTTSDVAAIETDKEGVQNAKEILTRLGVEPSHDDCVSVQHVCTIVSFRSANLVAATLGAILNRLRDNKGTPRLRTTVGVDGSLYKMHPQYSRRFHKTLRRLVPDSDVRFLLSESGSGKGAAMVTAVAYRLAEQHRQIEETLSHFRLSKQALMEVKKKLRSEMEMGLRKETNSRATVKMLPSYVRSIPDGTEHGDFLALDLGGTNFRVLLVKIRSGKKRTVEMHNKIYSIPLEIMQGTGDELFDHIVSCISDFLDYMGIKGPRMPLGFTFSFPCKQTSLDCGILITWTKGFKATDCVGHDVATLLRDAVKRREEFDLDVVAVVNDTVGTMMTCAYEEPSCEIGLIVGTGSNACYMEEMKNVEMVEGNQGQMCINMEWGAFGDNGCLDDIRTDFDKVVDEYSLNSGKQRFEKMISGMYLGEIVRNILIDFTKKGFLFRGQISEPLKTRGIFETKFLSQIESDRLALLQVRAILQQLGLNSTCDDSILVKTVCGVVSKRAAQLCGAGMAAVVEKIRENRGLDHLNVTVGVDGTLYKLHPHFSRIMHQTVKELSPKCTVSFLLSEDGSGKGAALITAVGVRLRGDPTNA

HKI enzymatic activity (initial rates versus glucose, 0.24 ug HKI) with 0.25, 7.5 and 15 nM Cox11; concentration of Cox11 at which no activity was recorded (Hexokinase type I (HKI)) | reversal by increasing LD of the inhibition of HKI activity by 7.5 nM Cox11 at saturating glucose; half-maximal effect [1] | Substance
15 nM |  | Recombinant Cox11, purified (from UniProt Q6P8I6 75-275) (natural protein)
 | 0.05 nM | GST-LD, leucine-rich domain of RanBP2 fused to glutathione S-transferase (from UniProt P49792 62-711) (domain or fragment)
